Results published in paper PMC5762688 (2018).

Tests used:
[1] = biological target: GST-exportin-1-His6/Ran-GTPγS complex, preformed (UniProt O14980 1-1071; P62826 1-216)
[2] = biological target: His6-importin α2/GST-importin β1 heterodimer (mouse), pre-dimerized (mouse, UniProt P52293 1-529; P70168 1-876)

Sequence of GST-exportin-1-His6/Ran-GTPγS complex, preformed (O14980 whole entry, one chain of several): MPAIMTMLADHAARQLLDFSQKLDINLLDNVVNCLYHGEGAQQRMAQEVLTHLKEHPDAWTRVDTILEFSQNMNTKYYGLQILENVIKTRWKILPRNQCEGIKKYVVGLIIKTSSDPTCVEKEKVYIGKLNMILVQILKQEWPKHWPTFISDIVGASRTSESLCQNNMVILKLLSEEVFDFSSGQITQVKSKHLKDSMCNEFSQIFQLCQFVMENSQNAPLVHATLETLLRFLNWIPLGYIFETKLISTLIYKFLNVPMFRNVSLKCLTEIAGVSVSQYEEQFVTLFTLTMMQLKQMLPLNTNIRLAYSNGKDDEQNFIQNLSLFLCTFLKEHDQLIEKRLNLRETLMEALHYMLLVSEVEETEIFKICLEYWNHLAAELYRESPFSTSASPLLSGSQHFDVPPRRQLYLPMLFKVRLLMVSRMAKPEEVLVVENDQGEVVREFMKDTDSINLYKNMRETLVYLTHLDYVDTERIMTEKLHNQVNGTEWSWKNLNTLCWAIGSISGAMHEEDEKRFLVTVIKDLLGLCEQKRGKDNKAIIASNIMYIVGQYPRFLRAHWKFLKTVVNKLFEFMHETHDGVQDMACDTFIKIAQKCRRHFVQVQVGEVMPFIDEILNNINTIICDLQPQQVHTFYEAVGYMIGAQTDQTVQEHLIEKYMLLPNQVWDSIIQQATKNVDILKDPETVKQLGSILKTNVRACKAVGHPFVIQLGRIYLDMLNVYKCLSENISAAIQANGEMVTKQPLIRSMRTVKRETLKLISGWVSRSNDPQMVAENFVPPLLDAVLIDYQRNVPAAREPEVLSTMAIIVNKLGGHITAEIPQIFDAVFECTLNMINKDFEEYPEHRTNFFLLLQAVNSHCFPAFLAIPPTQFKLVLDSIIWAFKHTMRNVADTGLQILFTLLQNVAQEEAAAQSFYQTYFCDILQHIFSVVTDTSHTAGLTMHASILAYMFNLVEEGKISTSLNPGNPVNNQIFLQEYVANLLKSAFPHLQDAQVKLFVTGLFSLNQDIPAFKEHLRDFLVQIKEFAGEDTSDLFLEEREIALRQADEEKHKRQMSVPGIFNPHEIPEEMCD

B1: Biotinylated Hendra virus V protein (natural protein)
chain: MDKLDLVNDGLDIIDFIQKNQKEIQKTYGRSSIQQPSTKDRTRAWEDFLQSTSGEHEQAEGGMPKNDGGTEGRNVEDLSSVTSSDGTIGQRVSNTRAWAEDPDDIQLDPMVTDVVYHDHGGECTGHGPSSSPERGWSYHMSGTHDGNVRAVPDTKVLPNAPKTTVPEEVREIDLIGLEDKFASAGLNPAAVPFVPKNQSTPTEEPPVIPEYYYGSGRRGDLSKSPPRGNVNLDSIKIYTSDDEDENQLEYEDEFAKSSSEVVIDTTPEDNDSINQEEVVGDPSDQGLEHPFPLGKFPEKEETPDVRRKDSLMQDSCKRGGVPKRLPMLSEEFECSGSDDPIIQELEREGSHPGGSLRLREPPQSSGNSRNQPDRQLKTGDAASPGGVQRPGTPMPKSRIMPIKKGHRREVSICWDGRRAWVEEWCNPVCSRITPQPRKQECYCGECPTECSQCCHEE
Kd [1]: 9.2 nM
Kd [2]: 14.9 nM
